Non-standard residues stand in square brackets, D forms with d. No end group written: not given here. pY = N[C@@H](Cc1ccc(OP(=O)(O)O)cc1)C(=O)O
Columns and labels:
GST-PTPN9 Y333A = target: T1, GST-PTPN9 Y333A (UniProt P43378 1-593, Y333A); test: cell-based or functional assay
T1 sequence (looked up): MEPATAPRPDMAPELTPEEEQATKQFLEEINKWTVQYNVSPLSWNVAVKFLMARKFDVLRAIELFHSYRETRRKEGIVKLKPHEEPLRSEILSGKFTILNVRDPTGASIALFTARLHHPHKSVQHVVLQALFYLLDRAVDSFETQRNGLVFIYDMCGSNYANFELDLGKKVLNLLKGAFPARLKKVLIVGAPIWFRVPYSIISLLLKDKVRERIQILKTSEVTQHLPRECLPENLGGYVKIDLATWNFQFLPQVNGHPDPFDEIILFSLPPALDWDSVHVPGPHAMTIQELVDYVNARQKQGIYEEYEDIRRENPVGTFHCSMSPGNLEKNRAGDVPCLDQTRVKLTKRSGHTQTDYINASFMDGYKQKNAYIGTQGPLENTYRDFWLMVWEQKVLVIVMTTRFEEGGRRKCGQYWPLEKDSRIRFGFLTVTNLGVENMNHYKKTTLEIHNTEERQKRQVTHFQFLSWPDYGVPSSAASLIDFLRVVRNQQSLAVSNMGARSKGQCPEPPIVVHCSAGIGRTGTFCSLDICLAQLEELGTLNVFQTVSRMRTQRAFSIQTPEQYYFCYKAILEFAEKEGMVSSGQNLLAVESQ

GST-PTPN9 D335A = target: T2, GST-PTPN9 D335A (UniProt P43378 1-593, D335A); test: cell-based or functional assay
T2 sequence (looked up): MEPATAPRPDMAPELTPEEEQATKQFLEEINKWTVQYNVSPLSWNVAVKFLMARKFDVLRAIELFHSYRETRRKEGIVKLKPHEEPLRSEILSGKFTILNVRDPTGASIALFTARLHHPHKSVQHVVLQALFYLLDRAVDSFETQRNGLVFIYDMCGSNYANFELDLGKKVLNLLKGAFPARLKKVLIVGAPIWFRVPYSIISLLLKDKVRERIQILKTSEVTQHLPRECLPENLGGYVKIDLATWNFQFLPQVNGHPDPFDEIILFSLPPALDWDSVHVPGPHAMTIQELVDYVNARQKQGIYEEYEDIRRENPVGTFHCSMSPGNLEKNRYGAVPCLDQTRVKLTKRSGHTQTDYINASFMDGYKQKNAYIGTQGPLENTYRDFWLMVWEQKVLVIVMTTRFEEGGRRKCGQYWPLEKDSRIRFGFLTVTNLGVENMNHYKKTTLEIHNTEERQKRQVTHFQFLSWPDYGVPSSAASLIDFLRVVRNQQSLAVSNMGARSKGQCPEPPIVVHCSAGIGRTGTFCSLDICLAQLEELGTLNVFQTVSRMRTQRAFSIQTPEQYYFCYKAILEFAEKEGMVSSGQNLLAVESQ

- Kcat of phosphatase activity against the p-IGF1R^Y1165/1166 peptide (GST-PTPN9 Y333A): 3.42 s⁻¹
- Kcat of phosphatase activity against the p-IGF1R^Y1165/1166 peptide (GST-PTPN9 D335A): 1.78 s⁻¹
Binder: IYETD[pY][pY]RKGGK [p-IGF1R^Y1165/1166 peptide]

— article PMC12751603 (Journal of Experimental & Clinical Cancer Research : CR, 2025)
